Laboratory results: patent US20060024786A1, “WASP and N-WASP constructs and methods of expressing such constructs” (Cytokinetics, Inc., priority 2004, published 2006)
“Also recorded” adds a separate entry of the source. Values belong to the substance of their own block, whether it stands above or below them.

Tests used:
Arp2/3 complex = target: T1, Arp2/3 complex; test: Arp2/3-mediated actin polymerization stimulated by WASP/N-WASP proteins; assay type: biochemical, human
T1 construct: prepared from an Arp2/3 source such as human platelets; from tissue; host or cells: cell extract, e.g. human platelets
Procedure: (§1) Samples containing candidate agents (individually or as mixtures) are placed into wells on a multi-well plate. Mix 1 is added to each of the wells and mixed with the candidate agent. A sample of Mix 2 is then introduced into each well and the resulting mixture thoroughly mixed. Typically, Mix 1 and Mix 2 are mixed in 1:1 ratio (e.g., 50 μl each of Mix 1 and Mix 2).
(§2) Actin polymerization is measured as a function of time by exciting pyrene at 365 nm and by detecting an increase in fluorescence emission at 407 nm. The change in fluorescence over time is utilized to determine a fluorescence parameter (e.g., maximal velocity, time to half maximal fluorescence intensity or area under the curve of a plot of fluorescence versus time).
In a second set of experiments, the ability of various truncated forms of WASP were compared to the activity of the full-length protein. The polymerization assays were conducted in the presence of 500 nM Cdc42, 2.5 nm purified Arp2/3 complex and 3.5 μM actin. FL-WASP, 105 WASP and the VCA (see Example 7) domain were tested. The results of these trials were plotted to obtain EC50 values. The results are provided in FIG. 6 and in the chart below.

[1] = Solubility of purified full-length protein; assay type: physicochemical; conditions: expressed in 293 cells, TAP-tag purification
full length human WASP [2] = target: T2, full length human WASP (Homo sapiens, UniProt P42768); test: Pyrene-actin polymerization assay: activation of full length WASP by upstream regulators; assay type: biochemical; conditions: for activation of FL WASP: Arp2/3 complex 4.0 nM, actin 3.5 μM
T2 construct: ProtA (part of TAP tag, behind the tev site) (C, cleaved yes); made in house; host or cells: human 293 cells (Freestyle 293 expression system)
T2 sequence (P42768 whole entry, added parts left off): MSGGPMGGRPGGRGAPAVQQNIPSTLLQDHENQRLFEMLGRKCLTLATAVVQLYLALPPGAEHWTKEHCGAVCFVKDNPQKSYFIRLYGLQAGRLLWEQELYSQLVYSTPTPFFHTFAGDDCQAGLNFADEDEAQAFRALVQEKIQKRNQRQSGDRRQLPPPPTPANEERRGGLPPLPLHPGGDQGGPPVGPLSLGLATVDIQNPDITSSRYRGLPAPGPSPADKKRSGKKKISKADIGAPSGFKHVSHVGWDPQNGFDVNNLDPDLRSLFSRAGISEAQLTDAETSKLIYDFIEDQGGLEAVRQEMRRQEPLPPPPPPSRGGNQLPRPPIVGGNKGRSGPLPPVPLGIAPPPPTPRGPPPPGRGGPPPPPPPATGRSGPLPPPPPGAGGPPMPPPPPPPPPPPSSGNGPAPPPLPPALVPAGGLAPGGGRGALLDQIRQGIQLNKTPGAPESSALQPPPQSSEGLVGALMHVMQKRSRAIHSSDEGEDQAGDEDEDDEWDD
Procedure: as §1, §2
Full length WASP was prepared as described in Example 1. This protein was then used as a substitute GST-105WASP in methods that were otherwise identical to the methods described in Example 7.
(§3) Full length human WASP and N-WASP were TAP-tagged (Rigaut, et al. (1999) Nat. Biotechnology 17:1030, which is incorporated herein by reference in its entirety for all purposes) at the C-terminus (see, also Examples 1 and 2). The recombinant WASP and N-WASP were expressed in human 293 cells and then purified using a TAP-tag protocol as described in Example 5.
The Arp2/3 complex in these experiments was 4.0 nM and the actin concentration 3.5 μM.
The effect of PIP2on the ability of upstream regulators to regulate FL WASP was evaluated in a fifth set of experiments. The results are depicted in graphical format in FIG. 9.

full length human N-WASP = target: T3, full length human N-WASP (Homo sapiens, UniProt O00401); test: Pyrene-actin polymerization assay: activation of full length N-WASP by upstream regulators; assay type: biochemical; conditions: for activation of FL N-WASP: Arp2/3 complex 4.0 nM, actin 3.5 μM; for Barbed ends: total concentration of Arp2/3 complex in the assay 4.2 nM
T3 construct: ProtA (part of TAP tag, behind the tev site) (C, cleaved yes); made in house; host or cells: human 293 cells; cDNA amplified from HeLa total RNA
T3 sequence (O00401 with tags, fused parts or gaps Y76H/A201G/F223S/S242L/D248E/S252L/N296S/A333E): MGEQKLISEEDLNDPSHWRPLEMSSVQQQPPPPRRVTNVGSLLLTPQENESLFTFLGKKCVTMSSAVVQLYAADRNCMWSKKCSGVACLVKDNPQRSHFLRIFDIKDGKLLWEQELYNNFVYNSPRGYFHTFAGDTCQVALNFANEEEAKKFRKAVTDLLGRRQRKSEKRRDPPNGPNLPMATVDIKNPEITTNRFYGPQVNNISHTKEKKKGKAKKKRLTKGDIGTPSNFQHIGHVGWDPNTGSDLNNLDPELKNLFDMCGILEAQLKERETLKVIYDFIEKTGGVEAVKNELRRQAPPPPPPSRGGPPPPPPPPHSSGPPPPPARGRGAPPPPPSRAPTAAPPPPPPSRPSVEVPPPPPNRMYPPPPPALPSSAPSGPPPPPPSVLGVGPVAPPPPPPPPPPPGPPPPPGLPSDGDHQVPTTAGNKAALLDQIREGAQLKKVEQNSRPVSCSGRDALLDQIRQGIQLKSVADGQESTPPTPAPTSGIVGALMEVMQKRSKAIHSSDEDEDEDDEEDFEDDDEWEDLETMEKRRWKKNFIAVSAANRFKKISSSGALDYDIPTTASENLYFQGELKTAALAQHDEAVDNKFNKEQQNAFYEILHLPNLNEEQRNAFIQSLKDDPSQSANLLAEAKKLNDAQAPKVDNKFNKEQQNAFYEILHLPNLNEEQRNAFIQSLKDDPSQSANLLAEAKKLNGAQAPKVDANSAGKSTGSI
Procedure: as §1, §2
Full length N-WASP was prepared as described in Example 2. This protein was then used as a substitute GST-105 WASP in methods that were otherwise identical to the methods described in Example 7.
as §3
Arp2/3 and actin concentrations were as described for the third experiment.
Another set of experiments similar to the fifth set were conducted using FL N-WASP.

full length human WASP [3] = target: T2, full length human WASP; test: Pyrene-actin polymerization assay: activation of full length WASP by upstream regulators; assay type: biochemical; conditions: total concentration of Arp2/3 complex in the assay 4.2 nM
[4] = 500 nM Cdc42, 2.5 nm Arp2/3 complex, 3.5 μM actin, from EC50 values

Substance: FL-WASP: full-length Wiskott-Aldrich syndrome protein, SEQ ID NO:2; expressed TAP-tagged in human 293 cells
activity relative to 105 WASP (Arp2/3 complex; [4]): approximately 20 times
potency relative to the VCA/WA domain (Arp2/3 complex; [4]): more than 70 times
stimulation of actin polymerization by the protein by itself (Arp2/3 complex; without upstream regulators, FIG. 5): only weakly stimulate actin polymerization
solubility of purified protein [1]: completely soluble

Substance: RhoC: GTPase; GST-tagged RhoC GTP with G14 mutated to V, SEQ ID NO:28
activation of FL WASP (full length human WASP [2]; FIG. 7): could not activate
activation of FL N-WASP (full length human N-WASP; FIG. 8): could not activate

Substance: phosphatidylinositol-4,5-bisphosphate [PIP2, reference compound]
effect of PIP2 on FL WASP (full length human WASP [2]; in the absence of small GTPases or Nck, FIG. 9): minimal, if any, effect

More lines, main results first:

activation of FL WASP (full length human WASP [2]; FIG. 7): could not activate
activation of FL N-WASP (full length human N-WASP; FIG. 8): could not activate
Substance: RhoA: GTPase; GST-tagged RhoA GTP, SEQ ID NO:30

Barbed ends % of max. (full length human WASP [2]; WASP, after subtracting baseline (WASP without activators)): 50%
Barbed ends (full length human WASP [3]): 2.6 nM
Barbed ends % of max. (full length human N-WASP; N-WASP, after subtracting baseline (without activators)): 78%
Barbed ends (full length human N-WASP; N-WASP): 3.5 nM
Substance: Nck2: upstream regulator; GST-tagged NCK2, SEQ ID NO:40
dose dependence of barbed end concentration / effect at higher concentrations (full length human WASP [2]; FL WASP, FIG. 7): bell shaped dependence; also recorded: inhibited
activation of FL N-WASP (full length human N-WASP; FIG. 8): only activators tested that can stimulate production of maximal concentration of barbed ends
dose dependence of barbed end concentration / effect at higher concentrations (full length human N-WASP; FL N-WASP, FIG. 8): bell shaped dose dependence; also recorded: inhibited
comparison as N-WASP activator (full length human N-WASP; Rac1 versus Cdc42 in the absence of PIP2 vesicles, Nck2 on N-WASP versus WASP, FIG. 8): significantly better activator of N-WASP than WASP

acceleration of actin polymerization by activator (full length human WASP [2]; FL-WASP plus activator versus FL-WASP alone, FIG. 5): 13 fold
Barbed ends (full length human WASP [3]): 3.8 nM
acceleration of actin polymerization by activator (full length human N-WASP; N-WASP plus activator versus N-WASP alone, FIG. 5): 13 fold
Barbed ends (full length human N-WASP; N-WASP): 1.3 nM
Substance: Cdc42: Rho-family GTPase, upstream regulator; GST-tagged Cdc42 GTP with G12 mutated to V, SEQ ID NO:26
activation of FL WASP (full length human WASP [2]; FIG. 7): can fully activate FL WASP; also recorded: more effective on WASP-stimulated actin nucleation by Arp2/3 complex than on N-WASP-stimulated actin nucleation
